From patent publication US20190077863A1 (AERPIO PHARMACEUTICALS, published 2019)
Substitutions are numbered along the chain they refer to. In names and notes the source's numbering stands.

B1: mouse/human chimeric antibody HC0LC0 (antibody, human IgG4 S228P, kappa, V domains shown)
VH: EVQLVETGGGLVQPKGSMKLSCAASGFTFNANAMNWIRQAPGKGLEWVARIRTKSNNYATYYAGSVKDRFTISRDDAQNMLYLQMNDLKTEDTAMYYCVRDYYGSSAWITYWGQGTLVTVSA
VL: DIVMTQSHKFMSTSVGDRVSITCKASQHVGTAVAWYQQKPDQSPKQLIYWASTRHTGVPDRFTGSGSGTDFTLTISNVQSEDLADYFCQQYSSYPFTFGSGTKLEIKR
notes: Murine variable domains of R15E6 on human IgG4 (S228P) and kappa constant domains, expressed in CHO cells; also called VH0-VL0
B2: humanized R15E6 variant HC2LC1 (antibody, human IgG4 S228P, kappa, V domains shown)
VH: EVQLVESGGGLVQPGGSLRLSCAASGFTFNANAMNWVRQAPGKGLEWVGRIRTKSNNYATYYAGSVKDRFTISRDDSKNSLYLQMNSLKTEDTAVYYCVRDYYGSSAWITYWGQGTLVTVSS
VL: DVVMTQSPSFLSASVGDRVTITCKASQHVGTAVAWYQQRPGKAPKLLIYWASTRHTGVPSRFSGSGSGTEFTLTISSLQPEDFATYFCQQYSSYPFTFGGGTKLEIKR
notes: Human IgG4 (S228P) / kappa, expressed in CHO cells; Signal peptides left out by range; also called VH2-VL1
B3: humanized R15E6 variant HC2LC2 (antibody, human IgG4 S228P, kappa, V domains shown)
VH: B2 VH
VL: DIVMTQSPDSLAVSLGERATINCKASQHVGTAVAWYQQKPGQPPKLLIYWASTRHTGVPDRFSGSGSGTDFTLTISSLQAEDVAVYYCQQYSSYPFTFGQGTKLEIKR
notes: Human IgG4 (S228P) / kappa, expressed in CHO cells; Signal peptides left out by range; also called VH2-VL2
B4: humanized R15E6 variant HC3LC4 (antibody, human IgG4 S228P, kappa, V domains shown)
VH: B2 VH with G16R, A23T, S80I, L81A
VL: B3 VL with G41E, Q100G, L104V
notes: Human IgG4 (S228P) / kappa, expressed in CHO cells; Signal peptides left out by range; also called VH3-VL4
B5: humanized R15E6 variant HC2LC4 (antibody, human IgG4 S228P, kappa, V domains shown)
VH: B2 VH
VL: B3 VL with G41E, Q100G, L104V
notes: Human IgG4 (S228P) / kappa, expressed in CHO cells; Signal peptides left out by range; also called VH2-VL4
B6: humanized R15E6 variant HC1LC2 (antibody, human IgG4 S228P, kappa, V domains shown)
VH: B2 VH with R19K, P41S, S80T, L81A, V95A
VL: B3 VL
notes: Human IgG4 (S228P) / kappa, expressed in CHO cells; Signal peptides left out by range; also called VH1-VL2
B7: humanized R15E6 variant HC1LC4 (antibody, human IgG4 S228P, kappa, V domains shown)
VH: B2 VH with R19K, P41S, S80T, L81A, V95A
VL: B3 VL with G41E, Q100G, L104V
notes: Human IgG4 (S228P) / kappa, expressed in CHO cells; Signal peptides left out by range; also called VH1-VL4
B8: humanized R15E6 variant HC2LC3 (antibody, human IgG4 S228P, kappa, V domains shown)
VH: B2 VH
VL: B2 VL with V2I, V3Q, S9F, F10S, R39K, E70D
notes: Human IgG4 (S228P) / kappa, expressed in CHO cells; Signal peptides left out by range; also called VH2-VL3

Assays:
[1] = target: T1, Human HPTP-η with C-terminal His10 tag (Human HPTP-η ECD) (human, UniProt Q12913 36-975); test: ELISA, coated antigen
T1 construct: Produced in HEK293 cells; it was not cut off; also called Human PTPη; human PTP-η
T1 sequence: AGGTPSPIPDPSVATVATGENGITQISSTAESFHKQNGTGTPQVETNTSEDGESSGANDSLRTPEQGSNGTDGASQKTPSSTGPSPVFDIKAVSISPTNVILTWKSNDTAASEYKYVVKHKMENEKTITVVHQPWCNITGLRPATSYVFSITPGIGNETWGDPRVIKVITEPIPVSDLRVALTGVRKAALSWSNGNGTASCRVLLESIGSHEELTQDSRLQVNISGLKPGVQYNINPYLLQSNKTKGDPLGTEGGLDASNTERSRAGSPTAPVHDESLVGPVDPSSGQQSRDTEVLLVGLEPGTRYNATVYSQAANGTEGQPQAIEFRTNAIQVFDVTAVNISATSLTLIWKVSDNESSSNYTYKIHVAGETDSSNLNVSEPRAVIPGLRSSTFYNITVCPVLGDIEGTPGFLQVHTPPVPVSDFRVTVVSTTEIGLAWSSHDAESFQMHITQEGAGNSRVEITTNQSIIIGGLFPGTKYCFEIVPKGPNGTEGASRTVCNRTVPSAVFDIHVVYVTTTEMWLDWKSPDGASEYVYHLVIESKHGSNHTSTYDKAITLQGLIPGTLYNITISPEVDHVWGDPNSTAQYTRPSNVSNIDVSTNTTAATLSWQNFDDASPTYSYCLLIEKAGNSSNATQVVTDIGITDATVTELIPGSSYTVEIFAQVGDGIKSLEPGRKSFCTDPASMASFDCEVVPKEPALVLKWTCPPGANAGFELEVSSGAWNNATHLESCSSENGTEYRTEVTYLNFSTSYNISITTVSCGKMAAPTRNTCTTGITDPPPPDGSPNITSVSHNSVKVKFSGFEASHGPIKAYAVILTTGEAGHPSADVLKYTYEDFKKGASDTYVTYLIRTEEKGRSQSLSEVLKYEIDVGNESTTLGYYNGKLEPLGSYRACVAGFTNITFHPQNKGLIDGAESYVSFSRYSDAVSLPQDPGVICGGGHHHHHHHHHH
Method: (§1) HPTP-β, cyno PTP-β, and HPTP-η proteins were coated onto ELISA plates in coating buffer (pH 9.4). Each protein was prepared as a 1 μg/mL protein stock in 50 mM carbonate-bicarbonate. The coated proteins were aliquoted at a volume of 100 μL/well into sterile, clear, polystyrene, flat bottom 96-well plates. The plates were incubated overnight at 4° C. After overnight incubation, the plates were washed 3× with 200 μL/well of 1×PBS-T (PBS with 0.05% Tween 20). The immunizing protein was human VE-PTP (HPTP-β). The plates were then blocked with 200 μL/well of 5% blotting grade blocker non-fat dry milk in PBS-T and incubated for 1 hr at room temperature.
(§2) Primary antibody samples were prepared for the humanized variants and the negative control, anti-hCD20-hIgG4S228P, using 1 μg/well in 5% blotting grade blocker non-fat dry milk in PBS. Samples were tested in triplicates. The Fab antibody fragments were treated as the IgG antibodies. The plates were then washed 3× with PBS-T and 100 μL of primary antibody preparation was added in each well. The plates were then incubated for 1 hr at room temperature.
(§3) Then, […] Ultra TMB-ELISA was added in each well, and the plate was allowed to develop for 5 min at room temperature. After 5 min, 50 μL of 2 M sulfuric acid was added to each well to stop the reaction. The plates were then analyzed on a plate reader at an absorbance wavelength of 450 nm.

[2] = target: T2, Human VE-PTP (HPTP-β) containing first eight FN3 repeats with C-terminal His6 tag (Human ½ VE-PTP ECD) (human, UniProt P23467 23-820); test: ELISA, antigen coated at 1 µg/mL, antibody 1 µg/well
T2 construct: Produced in HEK293 cells and purified by the His tag; it was not cut off; also called Human Beta ½ ECD
T2 sequence: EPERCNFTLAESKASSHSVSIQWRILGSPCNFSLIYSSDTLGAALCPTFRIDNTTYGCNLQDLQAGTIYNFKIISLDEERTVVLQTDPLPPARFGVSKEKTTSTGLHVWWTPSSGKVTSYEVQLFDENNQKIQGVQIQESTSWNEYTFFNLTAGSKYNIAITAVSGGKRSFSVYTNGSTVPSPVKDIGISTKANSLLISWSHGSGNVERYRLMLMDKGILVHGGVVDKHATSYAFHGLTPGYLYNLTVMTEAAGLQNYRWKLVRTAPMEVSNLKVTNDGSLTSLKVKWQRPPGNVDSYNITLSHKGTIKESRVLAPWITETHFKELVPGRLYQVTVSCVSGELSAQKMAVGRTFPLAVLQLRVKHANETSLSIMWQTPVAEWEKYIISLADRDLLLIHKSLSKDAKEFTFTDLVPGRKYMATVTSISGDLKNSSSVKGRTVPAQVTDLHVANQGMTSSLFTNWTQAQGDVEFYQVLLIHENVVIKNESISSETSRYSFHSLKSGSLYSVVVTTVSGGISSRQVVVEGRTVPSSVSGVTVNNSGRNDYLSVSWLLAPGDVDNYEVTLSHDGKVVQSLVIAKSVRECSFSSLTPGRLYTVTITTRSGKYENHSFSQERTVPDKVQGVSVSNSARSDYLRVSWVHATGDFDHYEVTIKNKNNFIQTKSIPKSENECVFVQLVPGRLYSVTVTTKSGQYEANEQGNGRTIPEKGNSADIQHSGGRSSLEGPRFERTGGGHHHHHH
Method: as §1, §2, §3

Binder | binding result [1] | ELISA value (absorbance at 450 nm) [2]
B1 | no binding (tested: <=0.2; 1 µg/well) | 1.8
B2 | no binding (tested: <=0.2; 1 µg/well) | 1.81
B3 | no binding (tested: <=0.2; 1 µg/well) | 1.92
B4 | no binding (tested: <=0.2; 1 µg/well) | 2
B5 | no binding (tested: <=0.2; 1 µg/well) | 1.65
B6 | no binding (tested: <=0.2; 1 µg/well) | 1.75
B7 | no binding (tested: <=0.2; 1 µg/well) | 1.74
B8 | no binding (tested: <=0.2; 1 µg/well) | 1.55
